Reference: article PMC11218506, “Characterization of the dual regulation by a c-di-GMP riboswitch Bc1 with a long expression platform from Bacillus thuringiensis”

Legend:
[1] = target: T1, Zur (Bacillus thuringiensis BMB171, UniProt A0A0G3E7H1 1-137); experiment: EMSA; 100 uM MnCl2 per Methods; 50 mM Tris-HCl pH 7.5, 10 mM MgCl2, 1 mM DTT, 100 mM NaCl, 100 uM MnCl2; 25 C, 30 min; 6% native PAGE in 0.5x TBE; DNA stated as 50 uM; details: protein: recombinant; tags: C-terminal 6xHis (pET28b); chain copies: 2; label: none (YeaRed gel stain); blunt
[2] = target: T1, Zur; experiment: EMSA; 100 uM MnCl2 (Mn2+ addition did not affect the interaction); 50 mM Tris-HCl pH 7.5, 10 mM MgCl2, 1 mM DTT, 100 mM NaCl, 100 uM MnCl2; 25 C, 30 min; 6% native PAGE in 0.5x TBE; DNA stated as 50 uM; details: protein: recombinant; tags: C-terminal 6xHis (pET28b); chain copies: 2; label: none (YeaRed gel stain); blunt

B1: mutant Bc1 dual terminator coding sequence (dsDNA)
DNA 1: CCAATGCTTTTACATTGGCTTTTTTTTATTCTCGAACATGCCACACCCATAAGCAGCCT
DNA 2: AGGCTGCTTATGGGTGTGGCATGTTCGAGAATAAAAAAAAGCCAATGTAAAAGCATTGG
B1: no binding [1].

B2: Bc1 dual terminator coding sequence (dsDNA)
DNA 1: CCAATGCTTTTACATTGGCTTTTTTTTATTCTCGAACATATTGAGAAACATTTTCAAAC
DNA 2: GTTTGAAAATGTTTCTCAATATGTTCGAGAATAAAAAAAAGCCAATGTAAAAGCATTGG
B2: binds [2].

B3: ck+ (dhbA positive control) (dsDNA)
DNA 1: TTATTTTTATAATTGATAATGATAATCATTATCAATAGATTGCGTTTTTC
DNA 2: GAAAAACGCAATCTATTGATAATGATTATCATTATCAATTATAAAAATAA
B3: binds [1].
